Laboratory results reported in doi:10.1101/2020.08.17.253781 (2020).

Molecular target: GST-LOV2GIVe (L) (Avena sativa | , UniProt O49003)

Kd: 270 nM
B1: His-Gαi3 (natural protein)
chain: MGCTLSAEDKAAVERSKMIDRNLREDGEKAAKEVKLLLLGAGESGKSTIVKQMKIIHEDGYSEDECKQYKVVVYSNTIQSIIAIIRAMGRLKIDFGEAARADDARQLFVLAGSAEEGVMTSELAGVIKRLWRDGGVQACFSRSREYQLNDSASYYLNDLDRISQTNYIPTQQDVLRTRVKTTGIVETHFTFKELYFKMFDVGGQRSERKKWIHCFEGVTAIIFCVALSDYDLVLAEDEEMNRMHESMKLFDSICNNKWFTDTSIILFLNKKDLFEEKIKRSPLTICYPEYTGSNTYEEAAAYIQCQFEDLNRRKDTKEVYTHFTCATDTKNVQFVFDAVTDVIIKNNLKECGLY
